Data published in the supplement of paper PMC6757056.
± gives the standard deviation of the averaged measurements.

B1: library; a variant is named by its letters at N, in order (parent)
chain: GCUGUCACCGAGAAACUGUGAAGUAUAUCUUAAACCUGGGCACUUAAAAGAUAUAUGGAGUUAGUAGUGCAACCUGCUCGGUCUGAUGAGUCCNNNNNNGGACGAAACAGC

Experiments:
[1] = variants of: B1; assay: normalized RNA/DNA level without ligand (relative to sTRSVctl = 100) (log10 (% of sTRSVctl)); HEK293T; ligand: cyclic di-GMP (c-di-GMP-II aptamer); higher = less ribozyme self-cleavage, higher mRNA level; details: reporter: mCherry (pCS4076), ligand present: no
In short: (§1)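 HEK293T cells were transfected with library plasmids carrying ribozyme switches linked to an mCherry reporter, or an eGFP reporter in some ligand experiments, at 4 µg per well of a 6-well plate, with any ligand added 1 h beforehand. After 72 h, total RNA was extracted with EDTA, reverse-transcribed, amplified, barcoded and sequenced. RNA level was defined as RNA reads over DNA reads, normalized to a spiked-in non-cleaving sequence or to the top-ranked sequences. That value was multiplied by 100 and converted to log10, the top set was 25 sequences, and only sequences with ≥100 DNA reads were retained.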

[2] = variants of: B1; assay: normalized RNA/DNA level with ligand (relative to sTRSVctl = 100) (log10 (% of sTRSVctl)); HEK293T; ligand: cyclic di-GMP (c-di-GMP-II aptamer); ligand concentration (+) RNA-Seq: 1 mM; higher = less ribozyme self-cleavage, higher mRNA level; details: reporter: mCherry (pCS4076), ligand present: yes
In short: as §1

Variant | normalized RNA/DNA level without ligand (log10) [1] | normalized RNA/DNA level with ligand (log10) [2]
UCCAGU | 1.63 ± 0.021 | 1.84 ± 0.11
GGGAGC | 1.625 ± 0.0022 | 1.76 ± 0.1
UUUUCA | 1.8 ± 0.025 | 1.91 ± 0.12
AGGGCU | 1.69 ± 0.034 | 1.85 ± 0.088
UUGGGG | 1.61 ± 0.057 | 1.78 ± 0.094
UUAACG | 1.81 ± 0.054 | 1.88 ± 0.11
GCCCUU | 1.701 ± 0.0065 | 1.85 ± 0.097
UCUUCC | 1.79 ± 0.059 | 1.92 ± 0.13
AUCGUG | 1.59 ± 0.084 | 1.74 ± 0.027
CUGGCU | 1.771 ± 0.0077 | 1.87 ± 0.067
AAGUUU | 1.724 ± 0.0032 | 1.88 ± 0.076
GAUUAG | 1.68 ± 0.046 | 1.8 ± 0.089
GCUUCG | 1.67 ± 0.022 | 1.76 ± 0.076
CGGAUC | 1.63 ± 0.036 | 1.72 ± 0.15
AGCGCC | 1.7734 ± 0.0015 | 1.91 ± 0.082
GCAAAA | 1.35 ± 0.18 | 1.59 ± 0.078
CGAGUC | 1.76 ± 0.065 | 1.88 ± 0.12
AACCUG | 1.57 ± 0.029 | 1.73 ± 0.092
CUCGGG | 1.76 ± 0.031 | 1.88 ± 0.085
UUGAUC | 1.73 ± 0.038 | 1.85 ± 0.11
UCCGGU | 1.67 ± 0.024 | 1.85 ± 0.1
CUAGUA | 1.56 ± 0.046 | 1.7 ± 0.04
UCCGCA | 1.72 ± 0.021 | 1.86 ± 0.14

Variant | normalized RNA/DNA level without ligand (log10) [1] | normalized RNA/DNA level with ligand (log10) [2]
AGUACC | 1.66 ± 0.018 | 1.86 ± 0.15
UCUUUG | 1.731 ± 0.0025 | 1.89 ± 0.069
CUUAGA | 1.61 ± 0.024 | 1.79 ± 0.12
GAAAGG | 1.56 ± 0.041 | 1.72 ± 0.12
CCAUUA | 1.41 ± 0.066 | 1.6 ± 0.093
GUUAGU | 1.66 ± 0.017 | 1.8 ± 0.13
UGCUCA | 1.762 ± 0.015 | 1.85 ± 0.09
UGCUCC | 1.858 ± 0.016 | 1.93 ± 0.17
CCUGAC | 1.649 ± 0.011 | 1.78 ± 0.11
CCUGAU | 1.6 ± 0.021 | 1.78 ± 0.14
CUCUUC | 1.73 ± 0.052 | 1.87 ± 0.082
ACACCC | 1.73 ± 0.012 | 1.86 ± 0.069
CCGUCU | 1.6 ± 0.061 | 1.78 ± 0.12
CCCGGA | 1.48 ± 0.075 | 1.72 ± 0.13
CACCAA | 1.4 ± 0.088 | 1.57 ± 0.1
CCGACU | 1.59 ± 0.082 | 1.74 ± 0.077
UAUGGA | 1.53 ± 0.017 | 1.73 ± 0.098
UAUGGC | 1.708 ± 0.015 | 1.82 ± 0.12
GUGGUU | 1.617 ± 0.0057 | 1.78 ± 0.13
AAGAUC | 1.6 ± 0.084 | 1.74 ± 0.097
UUGCUA | 1.62 ± 0.052 | 1.81 ± 0.07
GGGUUC | 1.79 ± 0.072 | 1.89 ± 0.12
UACGGU | 1.6 ± 0.032 | 1.78 ± 0.098

Variant | normalized RNA/DNA level without ligand (log10) [1] | normalized RNA/DNA level with ligand (log10) [2]
CUUAUG | 1.67 ± 0.022 | 1.81 ± 0.1
GCCGCA | 1.74 ± 0.0018 | 1.84 ± 0.14
UAGCAA | 1.716 ± 0.0099 | 1.84 ± 0.087
GCGUUC | 1.34 ± 0.19 | 1.55 ± 0.13
CCAGGG | 1.52 ± 0.025 | 1.77 ± 0.12
UUUCCC | 1.83 ± 0.07 | 1.94 ± 0.13
UCACAG | 1.667 ± 0.0019 | 1.83 ± 0.083
UAACAA | 1.7 ± 0.034 | 1.83 ± 0.16
AGGUGU | 1.66 ± 0.041 | 1.77 ± 0.06
UAACCA | 1.74 ± 0.036 | 1.86 ± 0.13
CGAGGA | 1.54 ± 0.027 | 1.65 ± 0.084
GAGUGU | 1.77 ± 0.049 | 1.89 ± 0.09
CAUGGC | 1.715 ± 0.005 | 1.84 ± 0.09
CCUGUG | 1.54 ± 0.12 | 1.76 ± 0.049
ACCAUC | 1.68 ± 0.04 | 1.81 ± 0.13
GGAGCC | 1.85 ± 0.011 | 1.9 ± 0.1
AAGGAG | 1.54 ± 0.14 | 1.67 ± 0.053
CGCGCA | 1.65 ± 0.046 | 1.75 ± 0.13
GGUACC | 1.82 ± 0.038 | 1.93 ± 0.12
GAGUUC | 1.81 ± 0.069 | 1.9 ± 0.06
AUUUAU | 1.74 ± 0.037 | 1.84 ± 0.073
CUUGUA | 1.57 ± 0.044 | 1.77 ± 0.12
CCUAUC | 1.63 ± 0.075 | 1.79 ± 0.077

Variant | normalized RNA/DNA level without ligand (log10) [1] | normalized RNA/DNA level with ligand (log10) [2]
GACAGU | 1.662 ± 0.0086 | 1.79 ± 0.11
GCCCCC | 1.78 ± 0.026 | 1.88 ± 0.084
GGGAAG | 1.63 ± 0.069 | 1.7145 ± 0.00089
CACUAU | 1.52 ± 0.067 | 1.72 ± 0.076
UCUGCC | 1.8 ± 0.045 | 1.91 ± 0.064
CUAGAG | 1.589 ± 0.011 | 1.74 ± 0.08
ACCUGC | 1.71 ± 0.029 | 1.85 ± 0.076
CCUUUG | 1.59 ± 0.078 | 1.77 ± 0.053
GCUCAA | 1.6 ± 0.023 | 1.79 ± 0.072
CAGAUU | 1.48 ± 0.11 | 1.65 ± 0.1
AAGUAA | 1.45 ± 0.12 | 1.63 ± 0.089
GACUAU | 1.645 ± 0.009 | 1.81 ± 0.12
AACUUA | 1.615 ± 0.0013 | 1.79 ± 0.17
AGACGG | 1.62 ± 0.088 | 1.78 ± 0.089
GUACGU | 1.63 ± 0.039 | 1.81 ± 0.063
UACUUA | 1.7 ± 0.055 | 1.84 ± 0.11
CAAAUG | 1.64 ± 0.017 | 1.82 ± 0.068
GAAACC | 1.722 ± 0.0059 | 1.85 ± 0.1
CCCGAG | 1.56 ± 0.065 | 1.76 ± 0.11
UGUGAG | 1.7 ± 0.038 | 1.87 ± 0.07
UCGAAC | 1.62 ± 0.026 | 1.76 ± 0.1
AGGAGG | 1.6462 ± 0.0014 | 1.74 ± 0.1
GUACAG | 1.65 ± 0.067 | 1.78 ± 0.12

Variant | normalized RNA/DNA level without ligand (log10) [1] | normalized RNA/DNA level with ligand (log10) [2]
ACCUAC | 1.7 ± 0.02 | 1.85 ± 0.075
CAAACU | 1.54 ± 0.045 | 1.68 ± 0.072
UGAUUG | 1.718 ± 0.017 | 1.88 ± 0.088
CUGUAA | 1.26 ± 0.086 | 1.51 ± 0.1
AAUGCA | 1.666 ± 0.0048 | 1.78 ± 0.14
CCGUGU | 1.66 ± 0.039 | 1.86 ± 0.095
ACUGAC | 1.611 ± 0.012 | 1.77 ± 0.12
GCCUGC | 1.78 ± 0.032 | 1.86 ± 0.097
GACUGC | 1.705 ± 0.012 | 1.88 ± 0.068
AUCAUG | 1.62 ± 0.019 | 1.78 ± 0.11
AUCAUA | 1.615 ± 0.0089 | 1.74 ± 0.075
ACGGGU | 1.42 ± 0.083 | 1.58 ± 0.092
UAUCAU | 1.656 ± 0.0018 | 1.81 ± 0.12
GGCAAA | 1.55 ± 0.074 | 1.65 ± 0.16
CGCAGA | 1.45 ± 0.08 | 1.68 ± 0.078
CGCAGG | 1.61 ± 0.034 | 1.84 ± 0.03
ACGCCA | 1.675 ± 0.012 | 1.87 ± 0.09
AUUCUU | 1.72 ± 0.052 | 1.88 ± 0.11
CUCUGC | 1.7905 ± 0.00063 | 1.83 ± 0.13
UUAAGC | 1.734 ± 0.0092 | 1.85 ± 0.078
CAGCAU | 1.56 ± 0.1 | 1.72 ± 0.075
CGAAAG | 1.78 ± 0.056 | 1.88 ± 0.046
UGGCAA | 1.64 ± 0.028 | 1.8 ± 0.1
